Laboratory results published in US20150132305A1.
Substitutions are numbered along the chain they refer to. No end group written: not given here.

B1: Cad-11-EC1-5-Fc fusion protein (5 extracellular domains of Cad-11 fused to the human IgG2 hinge, CH2 and CH3 domains) (Fc fusion, not shown: a dimerising Fc or GST)
chain: GWVWNQFFVIEEYTGPDPVLVGRLHSDIDSGDGNIKYILSGEGAGTIFVIDDKSGNIHATKTLDREERAQYTLMAQAVDRDTNRPLEPPSEFIVKVQDINDNPPEFLHETYHANVPERSNVGTSVIQVTASDADDPTYGNSAKLVYSILEGQPYFSVEAQTGIIRTALPNMDREAKEEYHVVIQAKDMGGHMGGLSGTTKVTITLTDVNDNPPKFPQSVYQMSVSEAAVPGEEVGRVKAKDPDIGENGLVTYNIVDGDGMESFEITTDYETQEGVIKLKKPVDFETKRAYSLKVEAANVHIDPKFISNGPFKDTVTVKISVEDADEPPMFLAPSYIHEVQENAAAGTVVGRVHAKDPDAANSPIRYSIDRHTDLDRFFTINPEDGFIKTTKPLDREETAWLNITVFAAEIHNRHQEAKVPVAIRVLDVNDNAPKFAAPYEGFICESDQTKPLSNQPIVTISADDKDDTANGPRFIFSLPPEIIHNPNFTVRDNRDNTAGVYARRGGFSRQKQDLYLLPIVISDGGIPPMSSTNTLTIKVCGCDVNGALLSCNAEAYILNAGLST
B2: H1M1 anti-Cad-11 EC1 domain antibody (hybridoma H1M1, ATCC PTA-9699) (antibody, V domains shown)
VH: EVQLQQSGPELVKPGASVKISCKASGYSFTGYFMNWVKQSHGKSLEWIGRINPYTGDTFYNQKFKGKATLTVDKSSSTAHMELLSLSSEDSAVYYCGRLGSRYWYFDVWGAGTTVTVSS
VL: DVLMTQTPLSLPVSLGDQASISCRSSQSIIHSNGNTYLEWYLQKPGQSPKLLIYKVSNRFSGVPDRFWTFGGGTKLEIKTGSGSGTDFTLKISRVEAEDLGVYYCFQGSHVPWTFGGGTKLEIK
B3: SDP061 humanized anti-Cad-11 EC1 antibody (Vκ2/VH1) (antibody, IgG4, V domains shown)
VH: B2 VH with Q5V, V12K, S40A, K43Q, S44G, K67R, H80Y, L84V, A111Q
VL: DVLMTQTPLSSPVTLGQPASISCRSSQSIIHSNGNTYLEWYLQKPGQSPQLLIYKVSNRFSGVPDRFSGSGSGTDFTLKISRVEAEDVGVYYCFQGSHVPWTFGQGTKLEIK
B4: SDP011 humanized anti-Cad-11 EC1 antibody (Vκ1/VH1) (antibody, IgG4, V domains shown)
VH: B2 VH with Q5V, V12K, S40A, K43Q, S44G, K67R, H80Y, L84V, A111Q
VL: B3 VL with S68T
B5: SDP111 humanized anti-Cad-11 EC1 antibody (Vκ3/VH1) (antibody, IgG4, V domains shown)
VH: B2 VH with Q5V, V12K, S40A, K43Q, S44G, K67R, H80Y, L84V, A111Q
VL: B3 VL with L3V
B6: SDP081 humanized anti-Cad-11 EC1 antibody (Vκ2/VH3) (antibody, IgG4, V domains shown)
VH: EVQLVQSGAEVKKPGASVKISCKASGYSFTGYFMNWVRQAPGQGLEWIGRINPYTGDTFYNQKFKGRATLTVDKSTSTAYMELSSLRSEDTAVYYCGRLGSRYWYFDVWGQGTTVTVSS
VL: B3 VL
B7: SDP121 humanized anti-Cad-11 EC1 antibody (Vκ3/VH2) (antibody, IgG4, V domains shown)
VH: B6 VH with R38K
VL: B3 VL with L3V
B8: SDP141 humanized anti-Cad-11 EC1 antibody (Vκ3/VH4) (antibody, IgG4, V domains shown)
VH: B6 VH with I20V, L70I
VL: B3 VL with L3V
B9: SDP091 humanized anti-Cad-11 EC1 antibody (Vκ2/VH4) (antibody, IgG4, V domains shown)
VH: B6 VH with I20V, L70I
VL: B3 VL
B10: SDP151 humanized anti-Cad-11 EC1 antibody (Vκ3/VH5) (antibody, IgG4, V domains shown)
VH: B6 VH with I20V, A68V, L70I
VL: B3 VL with L3V
B11: SDP041 humanized anti-Cad-11 EC1 antibody (Vκ1/VH4) (antibody, IgG4, V domains shown)
VH: B6 VH with I20V, L70I
VL: B3 VL with S68T
B12: SDP021 humanized anti-Cad-11 EC1 antibody (Vκ1/VH2) (antibody, IgG4, V domains shown)
VH: B6 VH with R38K
VL: B3 VL with S68T
B13: SDP131 humanized anti-Cad-11 EC1 antibody (Vκ3/VH3) (antibody, IgG4, V domains shown)
VH: B6 VH
VL: B3 VL with L3V
B14: SDP071 humanized anti-Cad-11 EC1 antibody (Vκ2/VH2) (antibody, IgG4, V domains shown)
VH: B6 VH with R38K
VL: B3 VL
B15: SDP031 humanized anti-Cad-11 EC1 antibody (Vκ1/VH3) (antibody, IgG4, V domains shown)
VH: B6 VH
VL: B3 VL with S68T
B16: SDP051 humanized anti-Cad-11 EC1 antibody (Vκ1/VH5) (antibody, IgG4, V domains shown)
VH: B6 VH with I20V, A68V, L70I
VL: B3 VL with S68T
B17: human Cad-11-EC1-hIgG2-Fc1 fusion protein (Fc fusion)
chain: FAPERRGHLRPSFHGHHEKGKEGQVLQRSKRGWVWNQFFVIEEYTGPDPVLVGRLHSDIDSGDGNIKYILSGEGAGTIFVIDDKSGNIHATKTLDREERAQYTLMAQAVDRDTNRPLEPPSEFIVKVQRSVECPPCPAPPVAGPSVFLFPPKPKDTLMISRTPEVTCVVVDVSHEDPEVQFNWYVDGMEVHNAKTKPREEQFNSTFRVVSVLTVVHQDWLNGKEYKCKVSNKGLPAPIEKTISKTKGQPREPQVYTLPPSREEMTKNQVSLTCLVKGFYPSDIAVEWESNGQPENNYKTTPPMLDSDGSFFLYSKLTVDKSRWQQGNVFSCSVMHEALHNHYTQKSLSLSPGKVPRLA

What was measured:
[1] = molecular target: T1, human Cadherin-11 on cells (Cad-11-expressing 431-D-11 cells; human fibroblast-like synoviocytes) (human) (UniProt P55287); test: cell-based or functional assay
T1 sequence: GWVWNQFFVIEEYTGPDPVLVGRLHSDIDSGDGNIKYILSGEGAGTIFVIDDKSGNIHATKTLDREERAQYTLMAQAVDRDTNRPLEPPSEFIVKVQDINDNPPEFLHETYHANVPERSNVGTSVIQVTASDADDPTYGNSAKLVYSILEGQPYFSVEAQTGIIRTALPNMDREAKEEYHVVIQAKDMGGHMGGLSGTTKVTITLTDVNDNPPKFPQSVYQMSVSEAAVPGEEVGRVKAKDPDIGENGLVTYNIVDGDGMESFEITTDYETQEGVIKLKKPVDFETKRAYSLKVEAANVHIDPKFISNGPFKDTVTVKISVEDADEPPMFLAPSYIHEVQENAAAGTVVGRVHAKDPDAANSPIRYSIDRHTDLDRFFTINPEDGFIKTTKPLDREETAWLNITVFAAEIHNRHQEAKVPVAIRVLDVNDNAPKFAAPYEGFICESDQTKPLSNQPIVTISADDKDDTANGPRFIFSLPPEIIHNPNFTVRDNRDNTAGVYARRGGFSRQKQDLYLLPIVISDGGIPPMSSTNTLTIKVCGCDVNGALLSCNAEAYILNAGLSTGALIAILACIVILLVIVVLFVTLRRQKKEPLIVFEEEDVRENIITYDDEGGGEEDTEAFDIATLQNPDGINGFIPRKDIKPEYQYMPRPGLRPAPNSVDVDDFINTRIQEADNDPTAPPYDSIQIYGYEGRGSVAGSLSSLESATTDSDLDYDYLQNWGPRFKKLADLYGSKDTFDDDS

[2] = molecular target: SDP051 humanized anti-Cad-11 EC1 antibody (Vκ1/VH5); test: flow cytometry blocking assay: peptide titrated with SDP 051 at 0.5 ug/ml on Cad-11 expressing 431D cells; blocked: binding of SDP051 to cell-surface Cad-11; MFI
[3] = molecular target: Cad-11 EC1 domain peptide, first 33 amino acids (G1-G33), specificity ELISA of Example 5 (human); test: ELISA on biotin EC1 peptides
[4] = molecular target: T2, Cad-8 EC1 domain peptide (region overlapping G1-G33 of the Cad-11 EC1 domain) (UniProt P55286); test: ELISA on biotin EC1 peptides
T2 sequence (peptide, conjugated to biotin, looked up): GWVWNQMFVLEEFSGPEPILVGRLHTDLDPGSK

[5] = molecular target: T3, recombinant Cad-11 EC1 human IgG1 fusion protein (R&D Systems Cat. No. 1790-CA-050) (human) (UniProt P55287); test: competition ELISA on coated recombinant human Cad-11 EC1 fusion protein against biotinylated SYN0012 (0.1 µg/ml)
T3 sequence: B1 chain

[6] = molecular target: T4, Cad-11 37-mer peptide linked to BSA (encompasses the Cad-11 immunogen) (human); test: ELISA on BSA-coupled 37-mer peptides, 500 ng/ml coat
T4 sequence (peptide, linked to BSA): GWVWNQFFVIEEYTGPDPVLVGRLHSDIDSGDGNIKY

[7] = molecular target: T4, Cad-11 37-mer peptide linked to BSA (encompasses the Cad-11 immunogen) (human); test: ELISA, BSA-coupled 37-mer cadherin peptide coated at 500 ng/ml, A450
[8] = molecular target: T4, Cad-11 37-mer peptide linked to BSA (encompasses the Cad-11 immunogen) (human); test: ELISA on peptide antigens, 50 ng/ml coat
[9] = molecular target: T4, Cad-11 37-mer peptide linked to BSA (encompasses the Cad-11 immunogen) (human); test: ELISA on peptide antigen, 50 ng/ml coat; Cad-11 antigen, 50 ng/ml coat

EC50 (read off the curve) [7]	other results	Binder
	Cad-11 mediated cell aggregation [1]: 100 µg/mL	B1
	IC50 (read off the curve) [2]: 200 ng/mL	GWVWNQFFVIEEYTGPDPVLVGRLHSDIDSGDGNIKY (also: linked to BSA) [Cad-11 37-mer peptide linked to BSA (encompasses the Cad-11 immunogen)]
	inhibition of FLS invasion into MATRIGEL-coated membrane [1]: 80%; fold higher binding to Cad-11 than to any of the other cadherins tested [3]: > 100 fold; fold lower binding than to Cad-11 [4]: 1500 fold; IC50 (read off the curve) [5]: 0.2 µg/mL	B2
50 ng/mL	fold greater binding to the Cad-11 antigen than to the related antigens from the other cadherins [6]: > 20 fold	B3
70 ng/mL		B4
70 ng/mL		B5
70 ng/mL		B6
50 ng/mL		B7
60 ng/mL		B8
70 ng/mL		B9
60 ng/mL		B10
60 ng/mL		B11
60 ng/mL		B12
70 ng/mL		B13
	fold greater binding to the Cad-11 antigen than to the related antigens from the other cadherins [6]: > 20 fold	B14
60 ng/mL	fold greater binding to the Cad-11 antigen than to the related antigens from the other cadherins [6]: > 20 fold	B15
40 ng/mL	binding differential, Cad-11 against Cad-8 [8]: > 200 fold; fold greater binding to the Cad-11 antigen than to the related antigens from the other cadherins [6]: > 100 fold; EC50 [9]: 6.8 ng/mL	B16
	Cad-11 mediated cell aggregation [1]: 3 µg/mL	B17
